“Also recorded” adds a separate entry of the source.

Sequences and labels used below:
T1: Aurora A kinase (Homo sapiens, UniProt O14965)
T1 construct: Codon-optimized Aurora A^122-403 in pET28a and untagged λPP in T7-7 plasmid were co-transformed in BL21(DE3) cells; inferred from pET28a and the NiNTA column) (cleaved yes); made in house; host or cells: E. coli BL21(DE3)
T1 sequence (O14965 122-403): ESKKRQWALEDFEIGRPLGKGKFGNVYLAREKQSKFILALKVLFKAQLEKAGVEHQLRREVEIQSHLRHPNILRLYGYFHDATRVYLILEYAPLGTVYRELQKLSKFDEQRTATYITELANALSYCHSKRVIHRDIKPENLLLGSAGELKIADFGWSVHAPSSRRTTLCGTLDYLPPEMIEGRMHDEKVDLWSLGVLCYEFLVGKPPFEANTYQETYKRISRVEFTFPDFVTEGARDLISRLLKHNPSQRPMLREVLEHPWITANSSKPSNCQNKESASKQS

T2: dephosphorylated Aurora A kinase (Homo sapiens, UniProt O14965)
T2 construct: Codon-optimized Aurora A^122-403 in pET28a and untagged λPP in T7-7 plasmid were co-transformed in BL21(DE3) cells; inferred from pET28a and the NiNTA column) (cleaved yes); made in house; host or cells: E. coli BL21(DE3), co-expressed with lambda protein phosphatase
T2 sequence (O14965 122-403): T1 sequence (O14965 122-403)

B1: sGFP-Mb60: fusion polypeptide of supercharged GFP and inhibiting monobody Mb60 (aka Mb2) (protein)
chain: GSVSSVPTKLEVVAATPTSLLISWDAPAVTVVHYVITYGETGGNSPVQEFTVPGSKSTATISGLKPGVDYTITVYAIDFYWGSYSPISINYRT
modifications: left off: large carriers
B2: sGFP-Mb54: fusion polypeptide of supercharged GFP and activating monobody Mb54 (aka Mb1) (protein)
chain: GSVSSVPTKLEVVAATPTSLLISWDAQTYQMYDYVSYYRITYGETGGNSPVQEFTVPGYYSTATISGLKPGVDYTITVYAEGYYSSYSPISINYRT
modifications: left off: large carriers
B3: sGFP-Mb6: fusion polypeptide of supercharged GFP and activity-neutral monobody Mb6 (protein)
chain: GSVSSVPTKLEVVAATPTSLLISWDAFGHQYEPVYYYRITYGETGGNSPVQEFTVPGYYSTATISGLKPGVDYTITVYAWYVDGSYSSPISINYRT
modifications: left off: large carriers
B4: Mb51: monobody binding allosteric site of Aurora A kinase, SEQ ID NO: 2; inhibitor (protein, listed as Homo sapiens)
chain: GSVSSVPTKLEVVAATPTSLLISWDAKPMSYEPVYYYRITYGETGGNSPVQEFTVPGYYSTATISGLKPGVDYTITVYADSMSSYYYSPISINYRT
B5: Mb60: monobody binding allosteric site of Aurora A kinase, SEQ ID NO: 4; inhibitor (protein, listed as Homo sapiens)
chain: B1 chain
B6: Mb56: monobody binding allosteric site of Aurora A kinase, SEQ ID NO: 3; inhibitor (protein, listed as Homo sapiens)
chain: GSVSSVPTKLEVVAATPTSLLISWDAMSDWYYWVDYYRITYGETGGNSPVQEFTVPGSYSTATISGLKPGVDYTITVYASDDVWGDYSPISINYRT
B7: Mb44: monobody binding allosteric site of Aurora A kinase, SEQ ID NO: 1; inhibitor (protein, listed as Homo sapiens)
chain: GSVSSVPTKLEVVAATPTSLLISWDAPAVTVDFYVITYGETGGYSYPWQEFEVPGSKSTATISGLKPGVDYTITVYADYGQYFYSPISINYRT
B8: Mb54: monobody binding allosteric site (PIF pocket) of Aurora A kinase, SEQ ID NO: 11; activator (protein, listed as Homo sapiens)
chain: B2 chain
B9: Mb6: monobody binding allosteric site of Aurora A kinase, SEQ ID NO: 10; activity neutral (protein, listed as Homo sapiens)
chain: B3 chain

One series has as its system HEK293 cells. Briefly: HEK293 viability (luminescence) after 7 hours of treatment. Type of series: cell-based, human. The settings on record: various monobody concentrations, FIG. 17E. From the text:
(§1) FIGS. 17A-17F present a set of plots, images and graphs showing data gathered using cultured HEK293 cells. In FIGS. 17A-17F, alternative names of the monobodies described herein are used. […] The error bars represent the standard error for the estimate of Kd and are a measure of the goodness of fit of the data. […] As observed in FIG. 17D, sGFP-Mb60's optimal cell delivery occurs after 7 hrs of exposure. FIG. 17E presents a bar graph of luminescence (mean±SEM, n=4 measurements/dataset) as a measure of HEK293 viability after cells were treated for 7 hours under the conditions indicated below the x-axis. Asterisks indicate significance levels of between-conditions t-test comparisons of the different conditions with liposome-treated control; […]; **=p≤0.01; ***=p≤0.001. […] Cells were quadruple stained to visualize DNA/sGFP(−Mbs)/Aurora A kinase/TPX2. […] In the images, DNA stained blue; GFP stained green; Aurora A kinase stained red; and […].
As to B1, the “cell death / viability of HEK293 cells” value is “statistically significant cell death”.
Turning to B2, the “cell death / viability of HEK293 cells” value is on record as “did not cause cell death”.
Still for that read-out and setting: with B3 the entry was “statistically significant cell death”.

A further series has as its target T1, Aurora A kinase. Put plainly: In vitro kinase assay (HPLC-based / ATP/NADH-coupled) of peptide substrate phosphorylation.
Conditions: not given
Type of series: biochemical. As for the experimental part: Aurora A, either phosphorylated/dephosphorylated wild type or mutant protein, was mixed with either AP ([…]) (SEQ ID NO: 5), Kemptide (LRRASLG) (SEQ ID NO: 6), or Lats2 ([…]) (SEQ ID NO: 7), in the absence or presence of 50 μM TPX2 in kinase buffer (20 mM TrisHCl, 200 mM NaCl, 3% [vol/vol] glycerol, 20 mM MgCl2, 1 mM TCEP, pH 7.50). These substrates comprise the consensus sequence for Aurora A ([R/K/N]—R—X—[S/T]-B where B is any hydrophobic residue with the exception of Pro) (Ferrari et al., 2005, Biochem. J., 390(Pt 1):293-302; Ohashi et al., 2006, Oncogene, 25:7691-7702; Sardon et al., 2010, EMBO Reports, 11:977-984). Peptides were ordered through Genscript. For HPLC-based activity assays the following protocol was used. The reaction was initiated with the addition of 5 mM ATP. Then 5 μl time points were collected, resuspended in 10 μl 6% (vol/vol) trichloroacetic acid (in water) to quench the reaction, and neutralized with 50 μl 100 mM KH2PO4, pH 8.0 to provide the appropriate pH for nucleotide separation. The mixture was then passed through a 0.22 μm SpinX column to remove any protein precipitation. Reverse phase-high performance liquid chromatography (RP-HPLC) and an ACE 5 C18-AR, 100 Å pore size column, were used to separate nucleotides as well as peptides. For nucleotide runs, 2 μl of the aforementioned mixture was sufficient for analysis, whereas for the peptide runs the optimal injection volume was 20 μl. Nucleotide runs were routinely performed to ensure no unproductive hydrolysis was occurring during the experiment. An isocratic elution run in 100 mM KH2PO4, pH 6.0 was performed for this purpose. For the peptide runs, a gradient of 0-30% of elution buffer lasting 10 min at 0.4 mL/min was sufficient to separate phosphorylated from non-phosphorylated species. The running buffer was 0.1% TFA (vol/vol) in water, while the elution buffer was 100% acetonitrile. Lastly, to ensure full saturation of Aurora A by TPX2 and test these proteins were well behaved, a dose-dependence curve of the effect of TPX2 on Aurora A was obtained.
For ATP/NADH-coupled assay-based reaction, the following protocol was used. Phosphorylation of different concentrations of Lats2 peptide was monitored using the ATP/NADH coupled assay in a 96-well plate format. Reactions were carried in the presence of 1 μM dephosphorylated or 0.05 μM phosphorylated Aurora and 5 mM ATP in assay buffer (20 mM TrisHCl, 200 mM NaCl, 20 mM MgCl2, 10% (v/v) glycerol, 1 mM TCEP, pH 7.50) at 25° C.
Take B4: the “Activity of Monobody on Aurora A kinase” value is reported as “inhibitor”.
Same read-out and setting: in the case of B5 it was “inhibitor”.
The same measure, in the same setting: with B6 the entry was “inhibitor”; with B7, “inhibitor”.
In the case of B8, the “Activity of Monobody on Aurora A kinase” value is “activator”.
Still for that read-out and setting: with B9 the entry was “neutral”.

Staying with this series, now noted: FIG. 17C.
Take B1: the “inhibition of Aurora A kinase activity by sGFP fusion compared with the monobody” value is “same extent as Mb60”.

Still in this series, the particulars now being: Lats2 peptide substrate, FIG. 9.
In the case of B4, the “effect of monobody on Aurora A kinase activity” value (“effect of monobody” for short) is given as “strongly inhibit”.
For the molecule B5, the “effect of monobody” value was “inhibitor; also recorded: inhibited; also recorded: strong inhibition”.
For B6, the “effect of monobody” value is given as “strongly inhibit”.
As to B7, the “effect of monobody” value is “strongly inhibit”.
The same measure, in the same setting: in the case of B8 it was “strongest activator; also recorded: activate; also recorded: activation”; in that of B9, “weakest regulator; also recorded: did not significantly modulate; also recorded: neutral activity”.

For another series, the target named is T2, dephosphorylated Aurora A kinase. Briefly: Isothermal titration calorimetry (ITC) binding to dephosphorylated Aurora A kinase. The settings on record: Aurora A pre-saturated with danusertib; FIGS. 11A-11B. As for the experimental part:
Titrations were carried out using Nano ITC isothermal titration calorimeter (TA Instruments) and analyzed via the NanoAnalyze software using the independent fit model. Injectant was added in 1 μl volume, every 180 s, with a constant stirring speed at 350 rpm and at 25° C. Prior to ITC titration, both protein and TPX2 or monobody were dialyzed/resuspended in ITC buffer (20 mM TrisHCl, 200 mM NaCl, 3% (vol/vol) glycerol, 1 mM TCEP, pH 7.50).
For B5, the “change of binding affinity of monobody to dephosphorylated Aurora A kinase” value is on record as “tightened”.
Consider B8, for which the “change of binding affinity of monobody to dephosphorylated Aurora A kinase” value was “weakened”.

The same series, now with this note: ITC, FIG. 8.
Take B4: the “binding affinity of monobody to dephosphorylated Aurora A kinase” value is reported as “low nanomolar affinities”.
Same read-out and setting: in the case of B5 it was “low μM levels”.
Turning to B6, the “binding affinity of monobody to dephosphorylated Aurora A kinase” value was “low nanomolar affinities”.
As for B7, the “binding affinity of monobody to dephosphorylated Aurora A kinase” value is recorded as “low μM levels”.
Turning to B8, the “binding affinity of monobody to dephosphorylated Aurora A kinase” value is recorded as “low nanomolar affinities”.
Same read-out and setting: with B9 the entry was “low nM affinity; also recorded: low nanomolar affinities”.

Staying with this series, now noted: ITC, FIGS. 17B, 18D.
With B1, the “binding affinity of sGFP-monobody fusion to Aurora A kinase compared with the monobody” value is listed as “comparable; also recorded: closely mimicked the binding”.
Consider B2, for which the “binding affinity of sGFP-monobody fusion to Aurora A kinase compared with the monobody” value is listed as “closely mimicked the binding”.

The test system of another series is Aurora A kinase in HEK293 cells. Put plainly: Immunofluorescence co-localization with Aurora A kinase in HEK293 cells. Type of series: cell-based, human. The settings on record: 7 hours after delivery, FIG. 17F.
From the text: as §1
As for B1, the “co-localization with Aurora A kinase” value is recorded as “strong co-localization”.
As for B2, the “co-localization with Aurora A kinase” value is listed as “strong co-localization”.
The same measure, in the same setting: in the case of B3 it was “strong co-localization”.

The record behind these values is patent US11266616B2, “Compositions and methods for inhibiting kinase activity” (BRANDEIS UNIVERSITY, priority 2016, dated 2022).
